Test [1] addresses GST-C2AB fusion protein of synaptotagmin I with the syt^B-IE mutation (I420E) (Drosophila). Kind of test: pull-down.
For test [2], the target named is GST-C2B fusion protein of synaptotagmin I (wild type) (Drosophila). As to the kind of experiment: pull-down.
Test [3] has as its target GST-C2AB fusion protein of synaptotagmin I (wild type) (Drosophila). Kind of test: pull-down.
The target in test [4] is GST-C2B fusion protein of synaptotagmin I with the syt^B-IE mutation (I420E) (Drosophila). As to the kind of experiment: pull-down.
The next test concerns the target full length t-SNAREs. As to the kind of experiment: co-flotation.

Data on 2 substances can be found in PMC3092483.

Turning to full length t-SNAREs (complex), the fold increase of binding by Ca2+ over EGTA in test [1] came out at 4.5 fold; in test [3], 2.4 fold. The increase of binding by Ca2+ over EGTA in test [1] is 0.112 units; in test [2], 0.116 units; in test [3], 0.2 units; in test [4], 0.105 units.
In turn, “synaptotagmin C2AB domain with the syt^B-IE mutation (I420E), as used in the co-flotation assay (domain or fragment)” gave a percent of wild type binding (% of wild type levels) in the test with full length t-SNAREs of 70.
